The labels stand for the following.
T1: Human Notch4-NRR domain Fc fusion protein (human, UniProt Q99466 1046-1445, limits assumed)
T1 construct: Expressed in a CHO cell line, used from culture supernatant; 1 is named; also called Human Notch4-NRR Fusion Protein; not shown: Fc
T1 sequence: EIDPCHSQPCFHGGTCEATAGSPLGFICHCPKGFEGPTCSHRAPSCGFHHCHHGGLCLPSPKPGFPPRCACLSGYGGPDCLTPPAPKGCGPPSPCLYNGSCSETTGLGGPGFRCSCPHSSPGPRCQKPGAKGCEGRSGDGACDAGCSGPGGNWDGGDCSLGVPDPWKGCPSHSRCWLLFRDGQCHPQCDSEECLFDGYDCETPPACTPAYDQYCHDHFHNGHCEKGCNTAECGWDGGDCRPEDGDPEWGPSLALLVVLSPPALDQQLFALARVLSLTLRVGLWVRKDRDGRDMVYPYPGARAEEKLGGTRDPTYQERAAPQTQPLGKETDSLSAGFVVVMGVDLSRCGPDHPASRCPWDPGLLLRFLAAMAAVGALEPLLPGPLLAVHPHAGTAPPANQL

B1: HA2L5(Lys-) (antibody, human IgG2, kappa)
heavy: EVQLVESGGGLVQPGGSLRLSCAASGFTFSSYGMSWVRQAPGKGLELVSTINSNGGRTYYANSVKGRFTISRDNSKNTLYLQMGSLRAEDMAVYYCARDQGFAYWGQGTLVTVSSASTKGPSVFPLAPCSRSTSESTAALGCLVKDYFPEPVTVSWNSGALTSGVHTFPAVLQSSGLYSLSSVVTVPSSNFGTQTYTCNVDHKPSNTKVDKTVERKCCVECPPCPAPPAAAPSVFLFPPKPKDTLMISRTPEVTCVVVDVSHEDPEVQFNWYVDGVEVHNAKTKPREEQFNSTFRVVSVLTVVHQDWLNGKEYKCKVSNKGLPAPIEKTISKTKGQPREPQVYTLPPSREEMTKNQVSLTCLVKGFYPSDIAVEWESNGQPENNYKTTPPMLDSDGSFFLYSKLTVDKSRWQQGNVFSCSVMHEALHNHYTQKSLSLSPG
light: DIQMTQSPSSLSASVGDRVTITCKASQDVGTAVAWYQQKPGKSPKLLIYWASTRHTGVPSRFSGSGSGTDFTLTISSLQPEDVATYFCQQYSSYPWTFGQGTKVEIKRTVAAPSVFIFPPSDEQLKSGTASVVCLLNNFYPREAKVQWKVDNALQSGNSQESVTEQDSKDSTYSLSSTLTLSKADYEKHKVYACEVTHQGLSSPVTKSFNRGEC
notes: Humanized IgG2 (V234A, G237A)/κ; also called No. 33
B2: HA2L6(Lys-) (antibody, human IgG2, kappa, V domains shown)
VH: EVQLVESGGGLVQPGGSLRLSCAASGFTFSSYGMSWVRQAPGKGLELVSTINSNGGRTYYANSVKGRFTISRDNSKNTLYLQMGSLRAEDMAVYYCARDQGFAYWGQGTLVTVSS
VL: EIVMTQSPATLSVSPGERATLSCKASQDVGTAVAWYQQKPGQSPRLLIYWASTRHTGIPARFSGSGSGTEFTLTISSLQSEDFAVYFCQQYSSYPWTFGQGTKVEIKR
notes: Humanized IgG2 (V234A, G237A)/κ; also called No. 40
B3: HK3L6(Lys-) (antibody, human IgG2, kappa, V domains shown)
VH: EVQLVESGGGLVQPGGSLRLSCAASGFTFSSYGMSWVRQAPGKGLELVATINSNGGRTYYPDSVKGRFTISRDNSKNTLYLQMGSLKAEDMAVYYCARDQGFAYWGQGTLVTVSS
VL: EIVMTQSPATLSVSPGERATLSCKASQDVGTAVAWYQQKPGQSPRLLIYWASTRHTGIPARFSGSGSGTEFTLTISSLQSEDFAVYFCQQYSSYPWTFGQGTKVEIKR
notes: Humanized IgG2 (V234A, G237A)/κ; also called No. 42
B4: HK1L5 (antibody, human IgG2, kappa, V domains shown)
VH: EVQLVESGGGLVQPGGSLRLSCAASGFTFSSYGMSWVRQAPGKGLEYVSTINSNGGRTYYPDSVKGRFTISRDNSKNTLYLQMGSLRAEDMAVYYCARDQGFAYWGQGTLVTVSS
VL: DIQMTQSPSSLSASVGDRVTITCKASQDVGTAVAWYQQKPGKSPKLLIYWASTRHTGVPSRFSGSGSGTDFTLTISSLQPEDVATYFCQQYSSYPWTFGQGTKVEIKR
notes: Humanized IgG2 (V234A, G237A)/κ; also called No. 10
B5: HA1L2 (antibody, human IgG2, kappa, V domains shown)
VH: EVQLVESGGGLVQPGGSLRLSCAASGFTFSSYGMSWVRQAPGKGLEYVSTINSNGGRTYYANSVKGRFTISRDNSKNTLYLQMGSLRAEDMAVYYCARDQGFAYWGQGTLVTVSS
VL: DIQMTQSPSSLSASVGDRVTITCKASQDVGTAVAWYQQKPGKVPKLLIYWASTRHTGVPSRFSGSGSGTDFTLTISSLQPEDVATYFCQQYSSYPWTFGQGTKVEIKR
notes: Humanized IgG2 (V234A, G237A)/κ; also called No. 22
B6: HK1L3 (antibody, human IgG2, kappa, V domains shown)
VH: EVQLVESGGGLVQPGGSLRLSCAASGFTFSSYGMSWVRQAPGKGLEYVSTINSNGGRTYYPDSVKGRFTISRDNSKNTLYLQMGSLRAEDMAVYYCARDQGFAYWGQGTLVTVSS
VL: EIVMTQSPATLSVSPGERATLSCKASQDVGTAVAWYQQKPGQAPRLLIYWASTRHTGIPARFSGSGSGTEFTLTISSLQSEDFAVYYCQQYSSYPWTFGQGTKVEIKR
notes: Humanized IgG2 (V234A, G237A)/κ; also called No. 8
B7: HA1L5 (antibody, human IgG2, kappa, V domains shown)
VH: EVQLVESGGGLVQPGGSLRLSCAASGFTFSSYGMSWVRQAPGKGLEYVSTINSNGGRTYYANSVKGRFTISRDNSKNTLYLQMGSLRAEDMAVYYCARDQGFAYWGQGTLVTVSS
VL: DIQMTQSPSSLSASVGDRVTITCKASQDVGTAVAWYQQKPGKSPKLLIYWASTRHTGVPSRFSGSGSGTDFTLTISSLQPEDVATYFCQQYSSYPWTFGQGTKVEIKR
notes: Humanized IgG2 (V234A, G237A)/κ; also called No. 25
B8: HK1L4 (antibody, human IgG2, kappa, V domains shown)
VH: EVQLVESGGGLVQPGGSLRLSCAASGFTFSSYGMSWVRQAPGKGLEYVSTINSNGGRTYYPDSVKGRFTISRDNSKNTLYLQMGSLRAEDMAVYYCARDQGFAYWGQGTLVTVSS
VL: EIVMTQSPATLSVSPGERATLSCKASQDVGTAVAWYQQKPGQAPRLLIYWASTRHTGIPARFSGSGSGTEFTLTISSLQSEDFAVYFCQQYSSYPWTFGQGTKVEIKR
notes: Humanized IgG2 (V234A, G237A)/κ; also called No. 9
B9: HK2L2 (antibody, human IgG2, kappa, V domains shown)
VH: EVQLVESGGGLVQPGGSLRLSCAASGFTFSSYGMSWVRQAPGKGLELVSTINSNGGRTYYPDSVKGRFTISRDNSKNTLYLQMGSLRAEDMAVYYCARDQGFAYWGQGTLVTVSS
VL: DIQMTQSPSSLSASVGDRVTITCKASQDVGTAVAWYQQKPGKVPKLLIYWASTRHTGVPSRFSGSGSGTDFTLTISSLQPEDVATYFCQQYSSYPWTFGQGTKVEIKR
notes: Humanized IgG2 (V234A, G237A)/κ; also called No. 12
B10: HK3L1 (antibody, human IgG2, kappa, V domains shown)
VH: EVQLVESGGGLVQPGGSLRLSCAASGFTFSSYGMSWVRQAPGKGLELVATINSNGGRTYYPDSVKGRFTISRDNSKNTLYLQMGSLKAEDMAVYYCARDQGFAYWGQGTLVTVSS
VL: DIQMTQSPSSLSASVGDRVTITCKASQDVGTAVAWYQQKPGKVPKLLIYWASTRHTGVPSRFSGSGSGTDFTLTISSLQPEDVATYYCQQYSSYPWTFGQGTKVEIKR
notes: Humanized IgG2 (V234A, G237A)/κ; also called No. 16
B11: HA2L1 (antibody, human IgG2, kappa, V domains shown)
VH: EVQLVESGGGLVQPGGSLRLSCAASGFTFSSYGMSWVRQAPGKGLELVSTINSNGGRTYYANSVKGRFTISRDNSKNTLYLQMGSLRAEDMAVYYCARDQGFAYWGQGTLVTVSS
VL: DIQMTQSPSSLSASVGDRVTITCKASQDVGTAVAWYQQKPGKVPKLLIYWASTRHTGVPSRFSGSGSGTDFTLTISSLQPEDVATYYCQQYSSYPWTFGQGTKVEIKR
notes: Humanized IgG2 (V234A, G237A)/κ; also called No. 26
B12: HA2L2 (antibody, human IgG2, kappa, V domains shown)
VH: EVQLVESGGGLVQPGGSLRLSCAASGFTFSSYGMSWVRQAPGKGLELVSTINSNGGRTYYANSVKGRFTISRDNSKNTLYLQMGSLRAEDMAVYYCARDQGFAYWGQGTLVTVSS
VL: DIQMTQSPSSLSASVGDRVTITCKASQDVGTAVAWYQQKPGKVPKLLIYWASTRHTGVPSRFSGSGSGTDFTLTISSLQPEDVATYFCQQYSSYPWTFGQGTKVEIKR
notes: Humanized IgG2 (V234A, G237A)/κ; also called No. 27
B13: HK3L2 (antibody, human IgG2, kappa, V domains shown)
VH: EVQLVESGGGLVQPGGSLRLSCAASGFTFSSYGMSWVRQAPGKGLELVATINSNGGRTYYPDSVKGRFTISRDNSKNTLYLQMGSLKAEDMAVYYCARDQGFAYWGQGTLVTVSS
VL: DIQMTQSPSSLSASVGDRVTITCKASQDVGTAVAWYQQKPGKVPKLLIYWASTRHTGVPSRFSGSGSGTDFTLTISSLQPEDVATYFCQQYSSYPWTFGQGTKVEIKR
notes: Humanized IgG2 (V234A, G237A)/κ; also called No. 17
B14: HK2L1 (antibody, human IgG2, kappa, V domains shown)
VH: EVQLVESGGGLVQPGGSLRLSCAASGFTFSSYGMSWVRQAPGKGLELVSTINSNGGRTYYPDSVKGRFTISRDNSKNTLYLQMGSLRAEDMAVYYCARDQGFAYWGQGTLVTVSS
VL: DIQMTQSPSSLSASVGDRVTITCKASQDVGTAVAWYQQKPGKVPKLLIYWASTRHTGVPSRFSGSGSGTDFTLTISSLQPEDVATYYCQQYSSYPWTFGQGTKVEIKR
notes: Humanized IgG2 (V234A, G237A)/κ; also called No. 11

In one assay the target is T1, Human Notch4-NRR domain Fc fusion …. The assay is described as follows: SPR (Biacore) as for Table 30; Notch4-NRR-Fc captured, antibody injected; averaged, N=3. As to the method:
(§1) Kinetic analysis of further anti-Notch4 inhibitory humanized antibodies was carried out as follows. Human Notch4-NRR domain Fc fusion proteins were expressed with a CHO cell line. The antigen in the culture supernatant was captured by the anti-human Notch4 antibody fixed on a CM5 sensor chip that recognizes different epitopes of human Notch4. The humanized anti-human Notch4 antibody was then injected onto the sensor chip at various concentrations. The interaction and disassociation constants thereof were calculated according to manufacturer's instructions.
Consider B1, for which the Kd is 0.776 nM, the off-rate constant (koff) stood at 0.0015 s⁻¹ and the kon is 2.01e+06 M⁻¹ s⁻¹.

Take B2: the dissociation constant Kd was 0.838 nM, the koff was 0.00151 s⁻¹ and the association rate constant (kon) stood at 1.83e+06 M⁻¹ s⁻¹.

Consider B3, for which the Kd was 0.766 nM, the koff stood at 0.00114 s⁻¹ and the kon was determined as 1.51e+06 M⁻¹ s⁻¹.

Consider B4, for which binding was put at a Kd of 1.78 nM, the koff worked out at 0.00489 s⁻¹ and the kon was 2.72e+06 M⁻¹ s⁻¹.

A further assay has the same target. The experiment in a line: SPR (Biacore) as for Table 30; Notch4-NRR-Fc captured, antibody injected; averaged, N=2. How it is done: as §1
Background: SPR reads the build-up and loss of mass on a sensor chip optically.
For the molecule B5, the affinity, expressed as Kd, was 18.6 nM; the off-rate (koff) came to 0.0122 s⁻¹; the kon was determined as 649000 M⁻¹ s⁻¹.

The molecule B6 came in with a Kd of 4.87 nM, an off-rate (koff) of 0.0196 s⁻¹ and an on-rate (kon) of 3.71e+06 M⁻¹ s⁻¹.

For the molecule B7, the dissociation constant Kd came out at 7.2 nM, the koff turned out to be 0.0452 s⁻¹ and the kon amounted to 6.36e+06 M⁻¹ s⁻¹.

For the molecule B8, binding was put at a Kd of 4.34 nM, the koff came out at 0.0118 s⁻¹ and the on-rate constant (kon) was 2.78e+06 M⁻¹ s⁻¹.

The next assay shares this target. The experiment in a line: SPR (Biacore) as for Table 30; Notch4-NRR-Fc captured, antibody injected; averaged, N=4. As to the method: as §1
As to B9, binding was characterised by a dissociation constant (Kd) of 1.38 nM, the dissociation rate constant (koff) turned out to be 0.00157 s⁻¹ and the kon was 1.23e+06 M⁻¹ s⁻¹.

For the molecule B10, binding was characterised by a dissociation constant (Kd) of 1.76 nM, the off-rate constant (koff) worked out at 0.00133 s⁻¹ and the on-rate (kon) was found to be 783000 M⁻¹ s⁻¹.

Molecule B11 gave a Kd of 1.76 nM, an off-rate (koff) of 0.00166 s⁻¹ and an on-rate constant (kon) of 949000 M⁻¹ s⁻¹.

With B12, the affinity, expressed as Kd, was 1.41 nM; the dissociation rate constant (koff) came to 0.00222 s⁻¹; the on-rate (kon) amounted to 1.63e+06 M⁻¹ s⁻¹.

As for B13, the dissociation constant (Kd) turned out to be 1.29 nM, the koff was determined as 0.00145 s⁻¹ and the kon was 1.13e+06 M⁻¹ s⁻¹.

For the molecule B14, binding was characterised by a dissociation constant (Kd) of 1.84 nM, the koff is 0.0016 s⁻¹ and the kon came out at 875000 M⁻¹ s⁻¹.

Usually Kd stands for a measure of binding affinity in units of concentration. Higher therefore signals a looser complex. For orientation: koff means the rate constant with which the complex falls apart. The term kon denotes the second-order rate constant of association. The low end stands for slow association, the high end for fast association.

(Values after patent US20170096493A1 (EISAI R AND D MANAGEMENT, published 2017).)
